Measured values taken from publication PMC9482650, “Quantitative fragmentomics allow affinity mapping of interactomes” (Nature Communications, 2022).

B1: CNTNAP2, Q9UHC6 (peptide)
chain: IDESKKEWLI
B2: MYPN, Q86TC9 (peptide)
chain: SRSVVESDEL
B3: CRIPT, Q9P021 (peptide)
chain: DTKNYKQTSV

What follows are binders tested against AHNAK1, Q09666 (assay: holdup assay). Settings: plain residues with an end cap or a label only (N-terminal biotin on a linker: ado-ado).
AHNAK1, Q09666, sequence (Q09666 4-100): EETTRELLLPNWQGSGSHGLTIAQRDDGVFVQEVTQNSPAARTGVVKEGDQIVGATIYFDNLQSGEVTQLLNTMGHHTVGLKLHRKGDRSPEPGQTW
Set-up: key: below the threshold = too weak to quantify, mostly under pKd 3.1 to 4
With B1 the pKd was “below the threshold”. With B2 the pKd was “below the threshold”. B3 was tested, and the pKd was “below the threshold”.

What follows are binders tested against T1, DFNB31_3, Q9P202 (assay: holdup assay). Settings: plain residues with an end cap or a label only (N-terminal biotin on a linker: ado-ado).
T1 sequence (Q9P202 811-907, limits assumed, looked up): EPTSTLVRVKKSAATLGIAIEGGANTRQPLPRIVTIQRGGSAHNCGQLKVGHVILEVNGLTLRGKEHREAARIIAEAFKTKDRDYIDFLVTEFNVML
Set-up: key: below the threshold = too weak to quantify, mostly under pKd 3.1 to 4
With B1 the pKd was 3.52. In the case of B2, the pKd is reported as “below the threshold”. For B3, the pKd was “below the threshold”.

These binders were tested against T2, DLG3_2, Q92796 (assay: holdup assay). Settings: plain residues with an end cap or a label only (N-terminal biotin on a linker: ado-ado).
T2 sequence (Q92796 221-321, limits assumed, looked up): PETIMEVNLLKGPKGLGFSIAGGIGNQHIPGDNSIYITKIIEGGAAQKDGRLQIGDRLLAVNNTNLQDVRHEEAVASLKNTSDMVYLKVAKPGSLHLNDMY
Set-up: key: below the threshold = too weak to quantify, mostly under pKd 3.1 to 4
For B1, the pKd was 3.91. With B2 the pKd was “below the threshold”. For B3, the pKd was 4.61.

These binders were tested against T3, DVL3, Q92997 (assay: holdup assay). Settings: plain residues with an end cap or a label only (N-terminal biotin on a linker: ado-ado).
T3 sequence (Q92997 244-331, limits assumed, looked up): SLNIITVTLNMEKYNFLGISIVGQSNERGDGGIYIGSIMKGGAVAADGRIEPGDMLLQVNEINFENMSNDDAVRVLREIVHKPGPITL
Set-up: key: below the threshold = too weak to quantify, mostly under pKd 3.1 to 4
B1 was tested, and the pKd was 3.85. In the case of B2, the pKd is reported as “below the threshold”. With B3 the pKd was “below the threshold”.

These binders were tested against FRMPD2_3, Q68DX3 (assay: holdup assay). Settings: plain residues with an end cap or a label only (N-terminal biotin on a linker: ado-ado).
FRMPD2_3, Q68DX3, sequence (Q68DX3 1073-1166): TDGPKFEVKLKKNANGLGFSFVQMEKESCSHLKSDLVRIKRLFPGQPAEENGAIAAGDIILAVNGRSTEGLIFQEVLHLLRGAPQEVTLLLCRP
Set-up: key: below the threshold = too weak to quantify, mostly under pKd 3.1 to 4
B1 gave a pKd of 3.51. For B2, the pKd was “below the threshold”. For B3, the pKd was “below the threshold”.

The binders below were run against FRMPD4, Q14CM0 (assay: holdup assay). Settings: plain residues with an end cap or a label only (N-terminal biotin on a linker: ado-ado).
FRMPD4, Q14CM0, sequence (Q14CM0 67-160): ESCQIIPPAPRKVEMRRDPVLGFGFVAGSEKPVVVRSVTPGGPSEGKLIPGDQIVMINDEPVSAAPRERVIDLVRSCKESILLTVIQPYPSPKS
Set-up: key: below the threshold = too weak to quantify, mostly under pKd 3.1 to 4
B1 was tested, and the pKd was “below the threshold”. B2 showed a pKd of 3.72. In the case of B3, the pKd is reported as “below the threshold”.

These binders were tested against GORASP1, Q9BQQ3 (assay: holdup assay). Settings: plain residues with an end cap or a label only (N-terminal biotin on a linker: ado-ado).
GORASP1, Q9BQQ3, sequence (Q9BQQ3 1-208): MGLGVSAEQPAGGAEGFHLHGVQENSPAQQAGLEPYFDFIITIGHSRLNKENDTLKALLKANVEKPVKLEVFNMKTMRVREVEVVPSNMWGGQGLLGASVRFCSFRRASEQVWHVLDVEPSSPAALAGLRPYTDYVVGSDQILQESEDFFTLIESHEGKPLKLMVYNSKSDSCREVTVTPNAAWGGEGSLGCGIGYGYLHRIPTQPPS
Set-up: key: below the threshold = too weak to quantify, mostly under pKd 3.1 to 4
B1 gave a pKd of 4.25. B2 was tested, and the pKd was “below the threshold”. B3 was tested, and the pKd was “below the threshold”.

Each binder was assayed against GORASP2, Q9H8Y8 (assay: holdup assay). Settings: plain residues with an end cap or a label only (N-terminal biotin on a linker: ado-ado).
Set-up: key: below the threshold = too weak to quantify, mostly under pKd 3.1 to 4
In the case of B1, the pKd is reported as 3.94. B2 was tested, and the pKd was “below the threshold”. For B3, the pKd was “below the threshold”.

Each binder was assayed against GRID2IP_1, A4D2P6 (assay: holdup assay). Settings: plain residues with an end cap or a label only (N-terminal biotin on a linker: ado-ado).
GRID2IP_1, A4D2P6, sequence (A4D2P6 1-87): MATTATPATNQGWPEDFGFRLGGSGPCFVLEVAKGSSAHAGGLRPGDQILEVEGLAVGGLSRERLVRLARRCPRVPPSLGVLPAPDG
Set-up: key: below the threshold = too weak to quantify, mostly under pKd 3.1 to 4
For B1, the pKd was “below the threshold”. B2 was tested, and the pKd was “below the threshold”. With B3 the pKd was “below the threshold”.

These binders were tested against T4, GRIP1_5, Q9Y3R0 (assay: holdup assay). Settings: plain residues with an end cap or a label only (N-terminal biotin on a linker: ado-ado).
T4 sequence (Q9Y3R0 568-668, limits assumed, looked up): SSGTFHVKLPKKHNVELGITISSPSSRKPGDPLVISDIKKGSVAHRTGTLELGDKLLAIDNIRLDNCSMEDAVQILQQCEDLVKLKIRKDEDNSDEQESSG
Set-up: key: below the threshold = too weak to quantify, mostly under pKd 3.1 to 4
B1 was tested, and the pKd was “below the threshold”. In the case of B2, the pKd is reported as “below the threshold”. With B3 the pKd was “below the threshold”.

The binders below were run against GRIP2_3, Q9C0E4 (assay: holdup assay). Settings: plain residues with an end cap or a label only (N-terminal biotin on a linker: ado-ado).
GRIP2_3, Q9C0E4, sequence (Q9C0E4 238-339): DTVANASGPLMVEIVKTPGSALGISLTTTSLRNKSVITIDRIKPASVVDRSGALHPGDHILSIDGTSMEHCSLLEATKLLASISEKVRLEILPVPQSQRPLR
Set-up: key: below the threshold = too weak to quantify, mostly under pKd 3.1 to 4
With B1 the pKd was “below the threshold”. B2 was tested, and the pKd was “below the threshold”. With B3 the pKd was “below the threshold”.

Each binder was assayed against Inadl_2, Q8NI35 (assay: holdup assay). Settings: plain residues with an end cap or a label only (N-terminal biotin on a linker: ado-ado).
Inadl_2, Q8NI35, sequence (Q8NI35 238-335): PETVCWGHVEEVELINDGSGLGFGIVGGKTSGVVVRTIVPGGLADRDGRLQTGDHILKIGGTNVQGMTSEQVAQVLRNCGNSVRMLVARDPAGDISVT
Set-up: key: below the threshold = too weak to quantify, mostly under pKd 3.1 to 4
B1 gave a pKd of 4.67. With B2 the pKd was “below the threshold”. In the case of B3, the pKd is reported as “below the threshold”.

What follows are binders tested against T5, LIN7C, Q9NUP9 (assay: holdup assay). Settings: plain residues with an end cap or a label only (N-terminal biotin on a linker: ado-ado).
T5 sequence (Q9NUP9 88-185, limits assumed, looked up): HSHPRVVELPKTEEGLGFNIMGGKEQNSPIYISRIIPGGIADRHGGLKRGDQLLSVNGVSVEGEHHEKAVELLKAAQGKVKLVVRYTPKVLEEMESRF
Set-up: key: below the threshold = too weak to quantify, mostly under pKd 3.1 to 4
With B1 the pKd was “below the threshold”. With B2 the pKd was “below the threshold”. B3 gave a pKd of 3.5.

The binders below were run against LNX1_2, Q8TBB1 (assay: holdup assay). Settings: plain residues with an end cap or a label only (N-terminal biotin on a linker: ado-ado).
LNX1_2, Q8TBB1, sequence (Q8TBB1 371-470): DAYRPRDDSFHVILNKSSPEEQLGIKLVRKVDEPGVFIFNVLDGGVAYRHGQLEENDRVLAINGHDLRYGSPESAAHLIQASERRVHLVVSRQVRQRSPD
Set-up: key: below the threshold = too weak to quantify, mostly under pKd 3.1 to 4
With B1 the pKd was 3.66. For B2, the pKd was “below the threshold”. For B3, the pKd was “below the threshold”.

Each binder was assayed against T6, LNX2_2, Q8N448 (assay: holdup assay). Settings: plain residues with an end cap or a label only (N-terminal biotin on a linker: ado-ado).
T6 sequence (Q8N448 334-432, limits assumed, looked up): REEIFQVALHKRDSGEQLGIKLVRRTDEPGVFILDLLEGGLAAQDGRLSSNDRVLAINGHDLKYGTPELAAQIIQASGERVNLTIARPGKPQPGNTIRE
Set-up: key: below the threshold = too weak to quantify, mostly under pKd 3.1 to 4
Work on B1 yielded a pKd of 4.77. For B2, the pKd was “below the threshold”. In the case of B3, the pKd is reported as 3.66.

These binders were tested against MAGI3_2, Q5TCQ9 (assay: holdup assay). Settings: plain residues with an end cap or a label only (N-terminal biotin on a linker: ado-ado).
MAGI3_2, Q5TCQ9, sequence (Q5TCQ9 398-503): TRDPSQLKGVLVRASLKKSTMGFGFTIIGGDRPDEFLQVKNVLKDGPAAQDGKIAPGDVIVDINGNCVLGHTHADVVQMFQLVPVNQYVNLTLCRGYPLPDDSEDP
Set-up: key: below the threshold = too weak to quantify, mostly under pKd 3.1 to 4
With B1 the pKd was 4.06. In the case of B2, the pKd is reported as “below the threshold”. Binder B3 has a pKd of 4.72.

These binders were tested against T7, MPDZ_5, O75970 (assay: holdup assay). Settings: plain residues with an end cap or a label only (N-terminal biotin on a linker: ado-ado).
T7 sequence (O75970 695-796, limits assumed, looked up): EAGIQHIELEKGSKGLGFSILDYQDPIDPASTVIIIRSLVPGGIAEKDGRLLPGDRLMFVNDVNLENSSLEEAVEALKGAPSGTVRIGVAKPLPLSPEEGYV
Set-up: key: below the threshold = too weak to quantify, mostly under pKd 3.1 to 4
In the case of B1, the pKd is reported as “below the threshold”. With B2 the pKd was “below the threshold”. In the case of B3, the pKd is reported as “below the threshold”.

Each binder was assayed against T8, NHERF3_3, Q5T2W1 (assay: holdup assay). Settings: plain residues with an end cap or a label only (N-terminal biotin on a linker: ado-ado).
T8 sequence (Q5T2W1 238-333, limits assumed, looked up): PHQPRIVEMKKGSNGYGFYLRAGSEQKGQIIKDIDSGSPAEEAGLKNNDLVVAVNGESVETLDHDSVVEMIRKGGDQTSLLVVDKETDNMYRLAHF
Set-up: key: below the threshold = too weak to quantify, mostly under pKd 3.1 to 4
B1 was tested, and the pKd was “below the threshold”. In the case of B2, the pKd is reported as “below the threshold”. For B3, the pKd was “below the threshold”.

What follows are binders tested against T9, NHERF3_4, Q5T2W1 (assay: holdup assay). Settings: plain residues with an end cap or a label only (N-terminal biotin on a linker: ado-ado).
T9 sequence (Q5T2W1 373-468, limits assumed, looked up): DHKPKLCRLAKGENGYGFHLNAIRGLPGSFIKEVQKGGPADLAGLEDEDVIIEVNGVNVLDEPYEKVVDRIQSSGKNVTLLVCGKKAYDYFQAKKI
Set-up: key: below the threshold = too weak to quantify, mostly under pKd 3.1 to 4
With B1 the pKd was “below the threshold”. In the case of B2, the pKd is reported as “below the threshold”. B3 gave a pKd of 3.56.

What follows are binders tested against PICK1, Q9NRD5 (assay: holdup assay). Settings: plain residues with an end cap or a label only (N-terminal biotin on a linker: ado-ado).
PICK1, Q9NRD5, sequence (Q9NRD5 17-115): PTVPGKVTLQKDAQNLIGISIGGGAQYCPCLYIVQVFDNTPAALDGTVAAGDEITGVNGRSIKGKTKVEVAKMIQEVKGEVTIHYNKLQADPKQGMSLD
Set-up: key: below the threshold = too weak to quantify, mostly under pKd 3.1 to 4
With B1 the pKd was 4.19. With B2 the pKd was “below the threshold”. With B3 the pKd was 4.15.

These binders were tested against SCRIB_2, Q14160 (assay: holdup assay). Settings: plain residues with an end cap or a label only (N-terminal biotin on a linker: ado-ado).
SCRIB_2, Q14160, sequence (Q14160 857-960): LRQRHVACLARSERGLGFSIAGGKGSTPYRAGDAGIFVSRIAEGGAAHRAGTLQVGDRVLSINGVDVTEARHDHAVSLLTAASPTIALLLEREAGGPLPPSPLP
Set-up: key: below the threshold = too weak to quantify, mostly under pKd 3.1 to 4
With B1 the pKd was “below the threshold”. B2 was tested, and the pKd was “below the threshold”. For B3, the pKd was 4.61.

The binders below were run against T10, SHANK1, Q9Y566 (assay: holdup assay). Settings: plain residues with an end cap or a label only (N-terminal biotin on a linker: ado-ado).
T10 sequence (Q9Y566 658-767, limits assumed, looked up): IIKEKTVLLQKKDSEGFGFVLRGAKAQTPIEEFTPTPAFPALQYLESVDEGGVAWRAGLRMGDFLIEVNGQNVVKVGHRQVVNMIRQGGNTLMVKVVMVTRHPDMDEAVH
Set-up: key: below the threshold = too weak to quantify, mostly under pKd 3.1 to 4
With B1 the pKd was “below the threshold”. B2 was tested, and the pKd was “below the threshold”. For B3, the pKd was “below the threshold”.

These binders were tested against T11, SIPA1L2, Q9P2F8 (assay: holdup assay). Settings: plain residues with an end cap or a label only (N-terminal biotin on a linker: ado-ado).
T11 sequence (Q9P2F8 945-1036, limits assumed, looked up): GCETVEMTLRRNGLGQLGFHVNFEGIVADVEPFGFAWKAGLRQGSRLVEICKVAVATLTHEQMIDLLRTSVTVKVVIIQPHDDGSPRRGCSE
Set-up: key: below the threshold = too weak to quantify, mostly under pKd 3.1 to 4
In the case of B1, the pKd is reported as “below the threshold”. B2 was tested, and the pKd was “below the threshold”. For B3, the pKd was “below the threshold”.

The binders below were run against T12, SNTB1, Q13884 (assay: holdup assay). Settings: plain residues with an end cap or a label only (N-terminal biotin on a linker: ado-ado).
T12 sequence (Q13884 107-205, limits assumed, looked up): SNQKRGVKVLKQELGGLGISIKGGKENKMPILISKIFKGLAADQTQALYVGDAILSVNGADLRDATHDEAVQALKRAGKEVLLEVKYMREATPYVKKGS
Set-up: key: below the threshold = too weak to quantify, mostly under pKd 3.1 to 4
In the case of B1, the pKd is reported as “below the threshold”. With B2 the pKd was “below the threshold”. For B3, the pKd was 4.73.

What follows are binders tested against TJP1_2, Q07157 (assay: holdup assay). Settings: plain residues with an end cap or a label only (N-terminal biotin on a linker: ado-ado).
TJP1_2, Q07157, sequence (Q07157 181-274): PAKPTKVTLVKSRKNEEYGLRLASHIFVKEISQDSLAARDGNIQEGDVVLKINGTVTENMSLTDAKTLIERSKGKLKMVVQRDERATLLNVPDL
Set-up: key: below the threshold = too weak to quantify, mostly under pKd 3.1 to 4
For B1, the pKd was 3.5. B2 gave a pKd of 3.51. With B3 the pKd was “below the threshold”.
